The IC50 is the concentration at which inhibition is half-maximal.

Where a chain is given by its changes, count along the chain named.

We go through eight molecules from patent US20170320956A1 (KYMAB, published 2017).

Sequences and labels used below:
T1: recombinant human LIGHT-214E, FLAG-tagged extracellular domain (human)
T1 chain: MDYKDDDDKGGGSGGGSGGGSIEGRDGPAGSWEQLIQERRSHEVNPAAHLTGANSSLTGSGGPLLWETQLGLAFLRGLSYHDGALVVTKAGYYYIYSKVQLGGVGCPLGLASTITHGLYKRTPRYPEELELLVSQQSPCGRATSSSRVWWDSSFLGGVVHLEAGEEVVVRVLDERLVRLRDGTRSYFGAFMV

T2: mouse LIGHT (mouse, UniProt Q9QYH9 72-239, limits assumed)
T2 construct: also called murine LIGHT
T2 sequence (looked up): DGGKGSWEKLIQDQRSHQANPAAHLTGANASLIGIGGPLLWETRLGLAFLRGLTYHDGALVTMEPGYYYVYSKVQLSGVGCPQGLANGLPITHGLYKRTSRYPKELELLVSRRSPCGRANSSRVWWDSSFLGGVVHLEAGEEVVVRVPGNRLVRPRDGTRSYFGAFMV

T3: rabbit LIGHT protein, FLAG-tagged extracellular domain (rabbit)
T3 chain: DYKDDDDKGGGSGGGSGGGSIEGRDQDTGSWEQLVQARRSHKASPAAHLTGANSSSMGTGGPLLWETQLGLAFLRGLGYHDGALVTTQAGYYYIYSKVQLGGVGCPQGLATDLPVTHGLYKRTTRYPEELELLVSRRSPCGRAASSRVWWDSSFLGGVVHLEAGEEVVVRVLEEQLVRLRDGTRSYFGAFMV

T4: recombinant human LIGHT-214K, FLAG-tagged extracellular domain (human)
T4 construct: the IgK leader peptide is marked only by underlining (not visible here), so its residues were not removed; Trimer
T4 chain: T1 chain with E166K

B1: 42A02 (purified from hybridoma supernatant) (antibody, V domains shown)
VH: EVQLVESGGGLVQPGGSLRLSCAASGFTFSSYVMSWVRQAPGKGLEWVSVISSSGVTTYYADSVKGRFTISRDNSKNTLYLQMNSLRAEETAVYYCAKGNYGSGSFCDYWGQGTPVTVSS
VL: SYVLTQPPSVSVAPGKTARITCGGNNIGSKSVHWYQQRPGQAPILVIYYDSDRPSGIPERFSGSNSGNSATLTISRVEAGDEADYHCQVWESSSDHPVFGGGTKLTVL
notes: Murine constant / human variable chimeric IgG, lambda, Protein G purified from hybridoma supernatant
B2: 144F05 (purified from hybridoma supernatant) (antibody, V domains shown)
VH: QVQLQESGPGLVKPSGTLSLTCAVSGGSISSTHWWNWVRQPPGKGLEWIGEIYHSGSTNCNPSLKSRVTISVDKSKNQFSLKMNSVTAADTAVYYCTRGGAAAGTNYGLDVWGQGTTVTVSS
VL: not shown
notes: Murine constant / human variable chimeric IgG, kappa, Protein G purified from hybridoma supernatant
B3: 62C01 (purified from hybridoma supernatant) (antibody, V domains shown)
VH: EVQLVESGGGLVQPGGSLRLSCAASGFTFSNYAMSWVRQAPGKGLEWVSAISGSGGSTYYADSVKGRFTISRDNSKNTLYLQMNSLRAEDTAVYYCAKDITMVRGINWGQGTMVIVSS
VL: DIQMTQSPSSVSASVGDRVTITCRASQGISNWLAWYQQKPGKAPKLLIFAASSLQSGVPSRFSGSGSGTDFTLTISSLQPEDFATYYCQQSNSFPLTFGGGTKVEIK
notes: as for B2
B4: 14B09 (purified from hybridoma supernatant) (antibody, V domains shown)
VH: QVQLVQSGAEVKKPGASVKVSCRASGYTFTSYLMHWVRQAPGQRLEWMGWINVGNGNTKYSQKFQGRVTITRDTSASTAYMELSGLRSEDTAVYYCARNYYNWFDPWGQGTLVTVSS
VL: QSALTQPASVSGSPGQSITISCTGTSSDVGGYNYVSWYQQHPGKAPKLMIYDVSKRPSGVSNRFSGSKSGNTASLTISGLQAEDEADYYCFSYAGSSTVVFGGGTKLTVL
notes: as for B1
B5: 13H04 (purified from hybridoma supernatant) (antibody, V domains shown)
VH: QVQLVQSGAEVKKPGASVKVSCKASGYTFTSYGISWVRQAPGQGLEWMGWISAHNANTNYAQKLQGRVTMTTDTSTSTAYMELRSLRSDDTAMYYCARLYRNWFDPWGQGTLVTVSS
VL: B4 VL with F91C, V99L, V100L
notes: as for B1
B6: 31A10 (purified from hybridoma supernatant) (antibody, V domains shown)
VH: QVQLQESGPGLVKPSGTLSLTCAVSGGSISSINWWNWVRQPPGKGLEWIGEVSHSGITNYNPSLKSRVTMSVDKAKNQFSLKLNSVTAADTAVYYCARERAVADYHGMDVWGQGTTVTVSS
VL: AIQLTQSPSSLSASVGDRVTITCRASQGISSALAWFQQKPGKPPKLLIFDASDLESGVSSRFSGSGSGTDFTLTISSLQPGDFATYYCQQFNSYPITFGQGTRLEIK
notes: as for B2
B7: 29C09 (purified from hybridoma supernatant) (antibody, V domains shown)
VH: QEQLVQSGAEVKKPGASVKVSCKASGYTFTSYDINWVRQATGQGLEWMGWMNPNSGYTGYAQKFQGRVTMTRNTSIRTVYMELSSLRSEDTAVYYCARGGETFDIWGQGTMVTVSS
VL: SYELTQPPSVSVSPGQTARITCSGDALPKKYAYWYQQKSGQAPVLVIYEDSKRPSGIPERFSGSSSGTMATLTISGAQVEDEADYYCYSTDSSDNHSVFGTGTKVTVL
notes: as for B1
B8: 31A10 in human IgG4(PE) format (antibody, V domains shown)
VH: B6 VH
VL: B6 VL

The target of one assay is T1, recombinant human LIGHT-214E, …. The assay can be described thus: cell-based or functional assay.
In the case of B1, the “HT29 IL-8 release, IC50” value stood at 0.917 nM.

On to B2, for which the “HT29 IL-8 release, IC50” value was found to be 2.75 nM.

On to B3, for which the “HT29 IL-8 release, IC50” value stood at 0.578 nM.

For B4, the “HT29 IL-8 release, IC50” value was determined as 1.31 nM.

Regarding B5, the “HT29 IL-8 release, IC50” value was 1.33 nM.

For the molecule B6, the “HT29 IL-8 release, IC50” value came to 0.217 nM.

With B7, the “HT29 IL-8 release, IC50” value came to 0.33 nM.

A further assay has the same target. The assay can be described thus: cell-based or functional assay. The source holds these as a separate data set.
Consider B8, for which the “HT29 IL-8 release, IC50” value amounted to 0.29 nM.

The target in another assay is T2, mouse LIGHT. The assay can be described thus: SPR ProteOn, mAb captured on anti-mouse IgG.
As for B1, the binding result was “no binding”.

As to B2, the binding result is “no binding”.

As to B4, the binding result is “no binding”.

In the case of B5, the binding result is reported as “no binding”.

Regarding B7, the binding result is “no binding”.

The target of the next assay is T3, rabbit LIGHT protein, FLAG-tagged …. Briefly: SPR ProteOn, mAb captured on anti-human IgG, 25 C. As to the method:
This created a capture surface suitable for capturing human antibodies. The LIGHT antibodies were captured on this anti-human IgG surface, and then human and rabbit LIGHT proteins were passed over captured LIGHT Abs at a concentration of 200 nM. A buffer injection was used to double reference the LIGHT binding sensorgrams. The assay was run at 25° C., using HBS-EP as running buffer.
On to B8, for which the binding result is listed as “binds”.

The target of the next assay is human LIGHT-214E, full length, expressed on the surface of CHO-S cells (human, UniProt O43557 1-240). The assay can be described thus: flow cytometry, CHO-S cells expressing hLIGHT-214E. (In general: A flow cytometer gives signals particle by particle.)
As to B1, the binding result was “binds”.

For B2, the binding result is “binds”.

With B3, the binding result was “binds”.

Turning to B4, the binding result is reported as “binds”.

For the molecule B5, the binding result was “binds”.

As for B6, the binding result is recorded as “binds”.

In the case of B7, the binding result is listed as “binds”.

Another assay deals with T1, recombinant human LIGHT-214E, …. Briefly: HTRF competition, HVEM-Fc binding to Flag-hLIGHT-214E. As to the method: (§1) The following methods were carried out with a titration of inhibitor in order to establish the clone potency as measured by IC50 values in the assay. 5 μl of Flag-tagged hLIGHT (in-house) diluted to 2.5 nM final concentration (10 nM working concentration) in HTRF buffer with 5 μl of a titration of antibody purified from hybridoma supernatant diluted in HTRF assay buffer from 300 nM final (1200 nM working concentration) was pre-incubated for 1 hour at room temperature. To wells used to define total binding, 5 μl of LIGHT (10 nM working, 2.5 nM final) and 5 μl of hybridoma maintaining media (HMM,)) were added. To wells used to define non specific binding (receptor only) 10 μl of HMM was added. Total and non specific binding wells were pre-incubated for 1 hr at RT in the same plate as wells containing titration of inhibitor.
(§2) LIGHT receptor was diluted in HTRF assay buffer and added to all wells, 5 μl/well of HVEM-Fc or LTβR-Fc (R&D systems) at 1.2 nM for HVEM (0.3 nM final) and 0.4 nM for LTβR (0.1 nM final).
Background: Time-resolved FRET reads energy transfer from a long-lived donor to a nearby acceptor.
Take B1: the IC50 amounted to 0.898 nM.

On to B2, for which the IC50 amounted to 1.34 nM.

On to B3, for which the half-maximal inhibitory concentration (IC50) is 1.6 nM.

For the molecule B4, the half-maximal inhibitory concentration (IC50) worked out at 0.895 nM.

With B5, the IC50 amounted to 1.09 nM.

Consider B6, for which the IC50 is 0.662 nM.

For the molecule B7, the half-maximal inhibitory concentration (IC50) was determined as 0.922 nM.

For a further assay the target is unchanged. The assay can be described thus: HTRF competition, LTβR-Fc binding to Flag-hLIGHT-214E. As to the method:
as §1, §2
In the case of B1, the IC50 worked out at 1.65 nM.

B2: the IC50 is 3.32 nM.

On to B3, for which the concentration for half-maximal inhibition (IC50) worked out at 2.66 nM.

In the case of B4, the IC50 amounted to 1.57 nM.

With B5, the half-maximal inhibitory concentration (IC50) was found to be 1.97 nM.

As for B6, the 50% inhibitory concentration (IC50) was found to be 1.45 nM.

On to B7, for which the 50% inhibitory concentration (IC50) was 1.55 nM.

A further assay shares this target. Briefly: HTRF competition, AlexaFluor 647 HVEM-Fc binding to Flag-hLIGHT-214E. As to the method:
as §1
(§3) The final IgG4(PE) format lead panel was analysed for neutralization activity as in Example 3. Antibodies were tested for their ability to neutralize LIGHT binding to its receptors, HVEM and LTβR, in an HTRF assay. Antibodies were also tested for their ability to neutralize LIGHT-induced IL-8 release by HT29 colon carcinoma cells.
(§4) HTRF assays were performed as per Example 3, with the following modifications: HVEM-Fc and LTβR-Fc were labelled with AlexaFluor 647, and an anti-Flag K antibody (Cisbio) was used for detection.
B8: the IC50 came out at 1.15 nM.

A further assay has the same target. Briefly: HTRF competition, AlexaFluor 647 LTβR-Fc binding to Flag-hLIGHT-214E. As to the method:
as §1, §3, §4
As for B8, the 50% inhibitory concentration (IC50) was determined as 2.19 nM.

For the next assay the target is unchanged. The assay can be described thus: SPR ProteOn, mAb captured on anti-mouse IgG, LIGHT 256 nM, 25 C, apparent affinity. As to the method:
(§5) SPR analysis was carried out using the ProteOn™ XPR36 Array System (BioRad). Anti-mouse IgG (GE Healthcare BR-1008-38) was immobilised on a GLC biosensor surface using amine coupling, the surface was then blocked using 1M ethanolamine. […] Apparent affinities for the LIGHT-antibody interaction were determined using the 1:1 model inherent to the ProteOn XPR36 analysis software. The assay was run using HBS-EP (Teknova) as running buffer and carried out at 25° C.
On to B1, for which the Kd amounted to 0.062 nM.

On to B2, for which the Kd was determined as 3.25 nM.

For B3, the Kd stood at 1.02 nM.

Turning to B4, the Kd was determined as 0.492 nM.

Regarding B5, the Kd is 0.881 nM.

On to B7, for which the Kd worked out at 0.311 nM.

The next assay addresses T4, recombinant human LIGHT-214K, …. The description is as above. As to the method:
as §5
For the molecule B1, the Kd was 0.161 nM.

Take B2: the Kd worked out at 5.78 nM.

On to B3, for which the Kd stood at 23.6 nM.

Consider B4, for which the Kd was 3.37 nM.

As to B5, the Kd is 1.57 nM.

As for B6, the Kd came out at 0.349 nM.

B7: the Kd worked out at 0.605 nM.

For a further assay, the target named is T5, recombinant cynomolgus monkey LIGHT, FLAG-tagged extracellular domain (cynomolgus (Macaca fascicularis), UniProt E9NVF7 59-240).
T5 construct: extracellular domain; also called cynomolgus LIGHT; cyno LIGHT
The description is as above. As to the method: as §5
B1: the Kd was determined as 0.084 nM.

For B2, the Kd stood at 2.89 nM.

On to B3, for which the Kd was 1.64 nM.

Turning to B4, the Kd turned out to be 0.156 nM.

As to B5, the Kd stood at 0.561 nM.

In the case of B7, the Kd is 2.28 nM.
